# Data as given in article PMC11417369, “DNA sequence and chromatin differentiate sequence-specific transcription factor binding in the human malaria parasite Plasmodium falciparum”.
# T1: HDP1 homeodomain-like (Plasmodium falciparum, UniProt Q8IKH4 2990-3078)
# T1 sequence: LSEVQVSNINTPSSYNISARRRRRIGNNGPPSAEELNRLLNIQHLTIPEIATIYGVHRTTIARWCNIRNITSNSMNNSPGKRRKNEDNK
# B1: GTGCAC_negctrl_site34 (dsDNA)
# DNA 1: AACTTAAAAAAAAAAAAAAAAAAAAAAAAAAAAAAA
# DNA 2: TTTTTTTTTTTTTTTTTTTTTTTTTTTTTTTAAGTT
# B2: GTGCAC_negctrl_site727 (dsDNA)
# DNA 1: TTTTTCTTTTTCTTTTTTTCTTTTTTTTTTTTTTTC
# DNA 2: GAAAAAAAAAAAAAAAGAAAAAAAGAAAAAGAAAAA
# B3: GTGCAC_site10509 (dsDNA)
# DNA 1: ACAACAATTCACTTGATGCACTAACCAAAAAAATAA
# DNA 2: TTATTTTTTTGGTTAGTGCATCAAGTGAATTGTTGT
# B4: GTGCAC_site10125 (dsDNA)
# DNA 1: ATATATATGGAAACAGTGCAATACATATATATATAT
# DNA 2: ATATATATATATGTATTGCACTGTTTCCATATATAT
# B5: GTGCAC_site10156 (dsDNA)
# DNA 1: ACCATATAAAGTTAGGTGCATTTGTATGTATCTTAC
# DNA 2: GTAAGATACATACAAATGCACCTAACTTTATATGGT
# B6: GTGCAC_site10533 (dsDNA)
# DNA 1: CGTAAATTTTTCTAAGTGCATGTTAATTTTTCAATT
# DNA 2: AATTGAAAAATTAACATGCACTTAGAAAAATTTACG
# B7: GTGCAC_site10762 (dsDNA)
# DNA 1: TGTAAAATATAAAAAGTGCATTTCTTTTAATATGAT
# DNA 2: ATCATATTAAAAGAAATGCACTTTTTATATTTTACA
# B8: GTGCAC_site9778 (dsDNA)
# DNA 1: CACCCTTTACACAAGGTGCATACTTTATTATATTTT
# DNA 2: AAAATATAATAAAGTATGCACCTTGTGTAAAGGGTG
# B9: GTGCAC_site10244 (dsDNA)
# DNA 1: ATCCGCTGCCTTTTGGTGCAGAACATAATCATGTAA
# DNA 2: TTACATGATTATGTTCTGCACCAAAAGGCAGCGGAT
# B10: GTGCAC_site9856 (dsDNA)
# DNA 1: TTAGCAGGACGTTTGGTGCACGTACTGTTTTTCTTT
# DNA 2: AAAGAAAAACAGTACGTGCACCAAACGTCCTGCTAA
# B11: GTGCAC_site10078 (dsDNA)
# DNA 1: AATTATATATAAAAAGTGCAAAACGATAATTCATCA
# DNA 2: TGATGAATTATCGTTTTGCACTTTTTATATATAATT
# B12: GTGCAC_site10445 (dsDNA)
# DNA 1: ACGGAAAAAGAAAAGGTGCATATGGACACAATATAT
# DNA 2: ATATATTGTGTCCATATGCACCTTTTCTTTTTCCGT
# B13: GTGCAC_site10737 (dsDNA)
# DNA 1: TAATTTCTTTAGGGGGTGCTTTTATAGTTTTTATTA
# DNA 2: TAATAAAAACTATAAAAGCACCCCCTAAAGAAATTA
# B14: GTGCAC_site10399 (dsDNA)
# DNA 1: CATATTATTATTTTGGTGCATACTTATATATATTTT
# DNA 2: AAAATATATATAAGTATGCACCAAAATAATAATATG
# B15: GTGCAC_site9537 (dsDNA)
# DNA 1: TAAATATATATATGTGTGCACTTCTTCATTTTAATA
# DNA 2: TATTAAAATGAAGAAGTGCACACATATATATATTTA
# B16: GTGCAC_site10269 (dsDNA)
# DNA 1: TGTGTATATATGCTGGTGCAACTTTAAAAAATAATC
# DNA 2: GATTATTTTTTAAAGTTGCACCAGCATATATACACA
# B17: GTGCAC_site10676 (dsDNA)
# DNA 1: TTTTGTTATTTTTTAGTGCATATAAAGGTTGTTAAG
# DNA 2: CTTAACAACCTTTATATGCACTAAAAAATAACAAAA
# B18: GTGCAC_site10413 (dsDNA)
# DNA 1: AATAAATTCATGATAGTGCAAAAATTATTTTTGTTA
# DNA 2: TAACAAAAATAATTTTTGCACTATCATGAATTTATT
# B19: GTGCAC_site9450 (dsDNA)
# DNA 1: ATAACAAAATGAAGAGTGCATTACCAAGTGGGTAAA
# DNA 2: TTTACCCACTTGGTAATGCACTCTTCATTTTGTTAT
# B20: GTGCAC_site9698 (dsDNA)
# DNA 1: GACTTTTCATTTATAGTGCAAGTTTTTTTTTTTTTT
# DNA 2: AAAAAAAAAAAAAACTTGCACTATAAATGAAAAGTC
# B21: GTGCAC_site10728 (dsDNA)
# DNA 1: TCATACATGGTGTGTTTGCACTTGACCTATATTCAT
# DNA 2: ATGAATATAGGTCAAGTGCAAACACACCATGTATGA
# B22: GTGCAC_site9492 (dsDNA)
# DNA 1: GTCAACAAGAATTAAGTGCATAATTTTTTATTAAAT
# DNA 2: ATTTAATAAAAAATTATGCACTTAATTCTTGTTGAC
# B23: GTGCAC_site10652 (dsDNA)
# DNA 1: ATATATATATTTTGGTAGCACCTCCTTTTTTTTTTT
# DNA 2: AAAAAAAAAAAGGAGGTGCTACCAAAATATATATAT
# B24: GTGCAC_site10061 (dsDNA)
# DNA 1: AAAAAAAAAAAAAGAGTGCAAACTATGATAATTTAA
# DNA 2: TTAAATTATCATAGTTTGCACTCTTTTTTTTTTTTT
# B25: GTGCAC_site10319 (dsDNA)
# DNA 1: TCATTTTAAATATGTGTGCACGTTATAATTTACACA
# DNA 2: TGTGTAAATTATAACGTGCACACATATTTAAAATGA
# B26: GTGCAC_site9712 (dsDNA)
# DNA 1: GAAAGAAAATATTAAGTGCATATTTTAATGATACAA
# DNA 2: TTGTATCATTAAAATATGCACTTAATATTTTCTTTC
# B27: GTGCAC_site9692 (dsDNA)
# DNA 1: TATATATGTATAAGAGTGCATATGCATATATGTATA
# DNA 2: TATACATATATGCATATGCACTCTTATACATATATA
# B28: GTGCAC_negctrl_site272 (dsDNA)
# DNA 1: AAGTTAGGATAGATCCAATAATTTTTAGTTTCTCTT
# DNA 2: AAGAGAAACTAAAAATTATTGGATCTATCCTAACTT
# B29: GTGCAC_site9933 (dsDNA)
# DNA 1: ATCTTATATATATGTGTGCACGTATATATAAGCAAT
# DNA 2: ATTGCTTATATATACGTGCACACATATATATAAGAT
# B30: GTGCAC_site10539 (dsDNA)
# DNA 1: ATATATTTTTATATAGTGCAAGTAATAAAAAGGAAT
# DNA 2: ATTCCTTTTTATTACTTGCACTATATAAAAATATAT
# B31: GTGCAC_site9634 (dsDNA)
# DNA 1: AAATTGAGACAACAGGTGCATATAAATATACAGTGT
# DNA 2: ACACTGTATATTTATATGCACCTGTTGTCTCAATTT
# B32: GTGCAC_site10465 (dsDNA)
# DNA 1: TGGTATGCAATATTGGTGCGTATATATTTTAAAGGG
# DNA 2: CCCTTTAAAATATATACGCACCAATATTGCATACCA
# B33: GTGCAC_site10562 (dsDNA)
# DNA 1: TTATTTATTTATATAGTGCAATAAACACATAAATAG
# DNA 2: CTATTTATGTGTTTATTGCACTATATAAATAAATAA
# B34: GTGCAC_site10338 (dsDNA)
# DNA 1: TGATATAAAATTAAAGTGCAAAAAAAAAATAAAAAA
# DNA 2: TTTTTTATTTTTTTTTTGCACTTTAATTTTATATCA
# B35: GTGCAC_site10124 (dsDNA)
# DNA 1: AAAAAAAAAAAATACGTGCACTATGATATATTATAT
# DNA 2: ATATAATATATCATAGTGCACGTATTTTTTTTTTTT
# B36: GTGCAC_site10031 (dsDNA)
# DNA 1: ATAAATAAAACAACAGTGCAATAAAATTAGTTGAGG
# DNA 2: CCTCAACTAATTTTATTGCACTGTTGTTTTATTTAT
# B37: GTGCAC_site10110 (dsDNA)
# DNA 1: AGTAGATTTTTATTAGTGCATTTTATACTACAAAAA
# DNA 2: TTTTTGTAGTATAAAATGCACTAATAAAAATCTACT
# B38: GTGCAC_site9865 (dsDNA)
# DNA 1: ATGTTGCTCATATGAGTGCACGTTTCATTTCAGTTT
# DNA 2: AAACTGAAATGAAACGTGCACTCATATGAGCAACAT
# B39: GTGCAC_negctrl_site165 (dsDNA)
# DNA 1: AATCGATTGGATAATATTTTTTCTCTTAATTTTTTG
# DNA 2: CAAAAAATTAAGAGAAAAAATATTATCCAATCGATT
# B40: GTGCAC_site10231 (dsDNA)
# DNA 1: TTCCAAGAAATAATAGTGCATTATTCATTTTAATAA
# DNA 2: TTATTAAAATGAATAATGCACTATTATTTCTTGGAA
# B41: GTGCAC_site9715 (dsDNA)
# DNA 1: TTTTTTAAATTGGTAGTGCAATATGATTGAACAAAA
# DNA 2: TTTTGTTCAATCATATTGCACTACCAATTTAAAAAA
# B42: GTGCAC_site10123 (dsDNA)
# DNA 1: ATACCTATTTGATGAGTGCATTATCCAATATATGTA
# DNA 2: TACATATATTGGATAATGCACTCATCAAATAGGTAT
# B43: GTGCAC_negctrl_site380 (dsDNA)
# DNA 1: ATGGAAGGATAATAAAAACCTTTACCTTTCTGTTTA
# DNA 2: TAAACAGAAAGGTAAAGGTTTTTATTATCCTTCCAT
# B44: GTGCAC_site9397 (dsDNA)
# DNA 1: TGTGTTAGCAAAAAAGTGCACAGGGAAAAAAAAATA
# DNA 2: TATTTTTTTTTCCCTGTGCACTTTTTTGCTAACACA
# Molecular target: T1, HDP1 homeodomain-like
# Test: gcPBM; about 25 ug protein; PBS, 1% milk, 0.2 mg/ml BSA, salmon testes DNA, 0.03% Triton X-100
# Settings: tags: N-terminal GST (pGEX-4T-1), kept; chain copies: 2; label: surface-attached array probe
row,Binder,binding signal
1,B1,"5.77 ln median PBM intensity, better of two orientations"
2,B2,"5.74 ln median PBM intensity, better of two orientations"
3,B3,"7.97 ln median PBM intensity, better of two orientations"
4,B4,"9.41 ln median PBM intensity, better of two orientations"
5,B5,"9.55 ln median PBM intensity, better of two orientations"
6,B6,"7.89 ln median PBM intensity, better of two orientations"
7,B7,"7.62 ln median PBM intensity, better of two orientations"
8,B8,"8.31 ln median PBM intensity, better of two orientations"
9,B9,"8.03 ln median PBM intensity, better of two orientations"
10,B10,"9.34 ln median PBM intensity, better of two orientations"
11,B11,"8.44 ln median PBM intensity, better of two orientations"
12,B12,"9.46 ln median PBM intensity, better of two orientations"
13,B13,"8.27 ln median PBM intensity, better of two orientations"
14,B14,"9.47 ln median PBM intensity, better of two orientations"
15,B15,"9.22 ln median PBM intensity, better of two orientations"
16,B16,"9.48 ln median PBM intensity, better of two orientations"
17,B17,"9.65 ln median PBM intensity, better of two orientations"
18,B18,"8.5 ln median PBM intensity, better of two orientations"
19,B19,"7.77 ln median PBM intensity, better of two orientations"
20,B20,"7.84 ln median PBM intensity, better of two orientations"
21,B21,"8.23 ln median PBM intensity, better of two orientations"
22,B22,"9.67 ln median PBM intensity, better of two orientations"

row,Binder,binding signal
1,B23,"8.08 ln median PBM intensity, better of two orientations"
2,B24,"8.19 ln median PBM intensity, better of two orientations"
3,B25,"9.66 ln median PBM intensity, better of two orientations"
4,B26,"8.76 ln median PBM intensity, better of two orientations"
5,B27,"8.71 ln median PBM intensity, better of two orientations"
6,B28,"5.7 ln median PBM intensity, better of two orientations"
7,B29,"9.28 ln median PBM intensity, better of two orientations"
8,B30,"8.63 ln median PBM intensity, better of two orientations"
9,B31,"9.49 ln median PBM intensity, better of two orientations"
10,B32,"8.58 ln median PBM intensity, better of two orientations"
11,B33,"9.14 ln median PBM intensity, better of two orientations"
12,B34,"8.82 ln median PBM intensity, better of two orientations"
13,B35,"9.03 ln median PBM intensity, better of two orientations"
14,B36,"8.8 ln median PBM intensity, better of two orientations"
15,B37,"8.86 ln median PBM intensity, better of two orientations"
16,B38,"8.54 ln median PBM intensity, better of two orientations"
17,B39,"5.77 ln median PBM intensity, better of two orientations"
18,B40,"9.61 ln median PBM intensity, better of two orientations"
19,B41,"9.52 ln median PBM intensity, better of two orientations"
20,B42,"8.94 ln median PBM intensity, better of two orientations"
21,B43,"5.82 ln median PBM intensity, better of two orientations"
22,B44,"9.59 ln median PBM intensity, better of two orientations"
